Experimental findings from publication PMC11681868 are described below.

The term Kd denotes the free concentration of one partner at which half of the binding sites on the other are occupied at equilibrium, for simple one-to-one binding.

Where no end group is shown, it is not given here. [ ]: non-standard residue; d: D form. pS = N[C@@H](COP(=O)(O)O)C(=O)O

Common to all, as to assay: ITC; iTC200; 5 μM scFv in the cell, 50 μM peptide in the syringe; samples dialyzed against PBS; triplicate
A general note: In ITC the heat of successive injections is recorded.

Experiment [1] deals with rabbit antibody A4 scFv (wild type) (rabbit).
rabbit antibody A4 scFv (wild type) (rabbit), sequence (heavy, as listed by the source, chain 1 of 2): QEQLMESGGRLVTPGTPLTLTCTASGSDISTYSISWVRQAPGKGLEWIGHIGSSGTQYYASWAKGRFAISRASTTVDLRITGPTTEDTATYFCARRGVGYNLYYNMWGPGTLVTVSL
rabbit antibody A4 scFv (wild type) (rabbit), sequence (light, as listed by the source, chain 2 of 2): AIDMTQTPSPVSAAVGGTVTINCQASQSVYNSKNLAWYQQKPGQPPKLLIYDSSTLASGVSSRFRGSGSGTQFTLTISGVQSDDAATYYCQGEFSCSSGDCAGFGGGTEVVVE
The target of experiment [2] is rabbit antibody A4 scFv H-S53A (rabbit).
rabbit antibody A4 scFv H-S53A (rabbit), sequence (heavy, as listed by the source, chain 1 of 2): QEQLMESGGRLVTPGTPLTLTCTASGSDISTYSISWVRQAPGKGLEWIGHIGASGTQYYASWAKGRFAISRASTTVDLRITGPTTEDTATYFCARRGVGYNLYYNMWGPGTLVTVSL
Experiment [3] concerns the target rabbit antibody A4 scFv H-S54A (rabbit).
Experiment [4] concerns the target rabbit antibody A4 scFv H-T56A (rabbit).
Experiment [5] deals with rabbit antibody C7 scFv (wild type) (rabbit).
rabbit antibody C7 scFv (wild type) (rabbit), sequence (heavy, as listed by the source, chain 1 of 2): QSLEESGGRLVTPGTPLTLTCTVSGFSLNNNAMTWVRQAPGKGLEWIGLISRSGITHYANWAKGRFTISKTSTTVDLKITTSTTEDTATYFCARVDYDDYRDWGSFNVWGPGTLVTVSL
rabbit antibody C7 scFv (wild type) (rabbit), sequence (light, as listed by the source, chain 2 of 2): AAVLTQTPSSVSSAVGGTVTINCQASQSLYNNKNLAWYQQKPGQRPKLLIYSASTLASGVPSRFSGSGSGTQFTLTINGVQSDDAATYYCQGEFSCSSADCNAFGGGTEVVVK
Experiment [6] concerns the target rabbit antibody C7 scFv H-S52A (rabbit).
Experiment [7] addresses rabbit antibody C7 scFv H-S54A (rabbit).

rabbit antibody C7 scFv H-S52A (rabbit), sequence (heavy, as listed by the source, chain 1 of 2): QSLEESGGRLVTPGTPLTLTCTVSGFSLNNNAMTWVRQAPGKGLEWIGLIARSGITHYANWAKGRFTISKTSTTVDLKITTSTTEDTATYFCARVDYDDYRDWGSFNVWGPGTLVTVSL
rabbit antibody A4 scFv H-S54A (rabbit), sequence (heavy, as listed by the source, chain 1 of 2): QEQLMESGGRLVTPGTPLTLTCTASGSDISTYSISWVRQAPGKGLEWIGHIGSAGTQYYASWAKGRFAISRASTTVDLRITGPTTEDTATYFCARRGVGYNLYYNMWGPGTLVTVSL
rabbit antibody A4 scFv H-T56A (rabbit), sequence (heavy, as listed by the source, chain 1 of 2): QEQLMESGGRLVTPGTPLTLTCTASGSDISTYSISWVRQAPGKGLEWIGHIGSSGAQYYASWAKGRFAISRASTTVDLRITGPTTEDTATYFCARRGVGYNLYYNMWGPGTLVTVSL
rabbit antibody C7 scFv H-S54A (rabbit), sequence (heavy, as listed by the source, chain 1 of 2): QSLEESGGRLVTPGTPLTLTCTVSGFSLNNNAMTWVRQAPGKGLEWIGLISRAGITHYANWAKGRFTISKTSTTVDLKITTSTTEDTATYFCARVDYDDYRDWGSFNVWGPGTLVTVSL

B1: phosphorylated Akt peptide (peptide)
peptide: RPHFPQF[pS]YSAS
On to B1, for which the dissociation constant (Kd) in experiment [1] turned out to be 3.34 nM; in experiment [2] it was 3.55 nM; in experiment [3] it was 6.95 nM; in experiment [4], 4 nM; in experiment [5] it was 26.9 nM; in experiment [6] it was 664 nM. The Kd in experiment [7] stood at 95.3 nM. The dH in experiment [1] was -24.4 kcal/mol; in experiment [2], -24.9 kcal/mol; in experiment [3], -23.5 kcal/mol; in experiment [4] it was -23 kcal/mol; in experiment [5] it was -14.4 kcal/mol; in experiment [6] it was -11.1 kcal/mol. This molecule also showed a dH in experiment [7] of -13.3 kcal/mol.
